Experimental data reported in patent publication US20160017022A1.

Target: EGFP-MAL stably expressed on CHO cells
Assay: FACS, CHO cells stably expressing EGFP-MAL

In the case of “fluorescently labeled ETX (ETX^Alexa-647) (from UniProt Q02307 33-328) (ligand)”, the double labeling of EGFP-MAL expressing cells is reported as 100%.
